Target: human Erd2p (KDEL receptor) (human) (UniProt P24390)
Experiment: radioligand binding

Chain of UniProt P24390 (P24390 whole entry): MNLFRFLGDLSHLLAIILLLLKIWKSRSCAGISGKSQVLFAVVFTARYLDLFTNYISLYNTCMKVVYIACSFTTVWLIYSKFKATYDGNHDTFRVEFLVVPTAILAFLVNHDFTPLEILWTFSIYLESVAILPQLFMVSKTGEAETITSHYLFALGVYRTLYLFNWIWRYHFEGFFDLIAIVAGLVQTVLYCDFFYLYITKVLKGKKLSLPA

cholera toxin A subunit (wild-type CTX-A), 125I-labelled (natural protein)
binding at pH 6 as percent of the binding at pH 5: 60%

Source: article PMC2148140
